Data: US20210246166A1 (Bayer, published 2021)
Numbered stars: 1 amine (or outer) side, 2 acyl side, 3 side chain; on linkers, the order of the positions; unused ones are H or OH. Bridge positions count the residues as written; N and C are the ends. Square brackets hold non-standard residues; d marks the D form. Ends that are not written are not given here. X17 = 2‑((1S,2S)-1-(Amino)-2-methylbutyl)‑1,3‑oxazole‑4‑carboxylic acid, CC[C@H](C)[C@H](N[*:1])c1nc(C(=O)[*:2])co1; Pro(4-spirocPr) = O=C(O)[C@@H]1CC2(CC2)CN1; Oic = O=C(O)[C@@H]1C[C@@H]2CCCC[C@@H]2N1; tBuAla = CC(C)(C)C[C@H](N)C(=O)O; Pen = CC(C)(S)[C@H](N)C(=O)O; NMeC = CN[C@@H](CS)C(=O)O; Orn = NCCC[C@H](N)C(=O)O

B1: Example 17: AIC+SRSLP-((6S)-5-Azaspiro[2.4]heptane-6-carboxylic acid)-I-(Pen)+IPD-NH2 (peptide)
peptide: AICSRSLP[Pro(4-spirocPr)]I[Pen]IPD-NH2
modifications: disulfide 3-11; N-terminus assumed
SMILES: CC[C@H](C)[C@H](NC(=O)[C@H](C)N)C(=O)N[C@H]1CSSC(C)(C)[C@@H](C(=O)N[C@H](C(=O)N2CCC[C@H]2C(=O)N[C@@H](CC(=O)O)C(N)=O)[C@@H](C)CC)NC(=O)[C@H]([C@@H](C)CC)NC(=O)[C@@H]2CC3(CC3)CN2C(=O)[C@@H]2CCCN2C(=O)[C@H](CC(C)C)NC(=O)[C@H](CO)NC(=O)[C@H](CCCNC(=N)N)NC(=O)[C@H](CO)NC1=O
B2: Example 14: AIC+SRS-((tBu)A)-P-(Oic)-I-(Pen)+IPD-OH (peptide)
peptide: AICSRS[tBuAla]P[Oic]I[Pen]IPD-OH
modifications: disulfide 3-11; N-terminus assumed
SMILES: CC[C@H](C)[C@H](NC(=O)[C@H](C)N)C(=O)N[C@H]1CSSC(C)(C)[C@@H](C(=O)N[C@H](C(=O)N2CCC[C@H]2C(=O)N[C@@H](CC(=O)O)C(=O)O)[C@@H](C)CC)NC(=O)[C@H]([C@@H](C)CC)NC(=O)[C@@H]2C[C@@H]3CCCC[C@@H]3N2C(=O)[C@@H]2CCCN2C(=O)[C@H](CC(C)(C)C)NC(=O)[C@H](CO)NC(=O)[C@H](CCCNC(=N)N)NC(=O)[C@H](CO)NC1=O
B3: Example 12: AIC+SRS-((tBu)A)-PPI-(Pen)+IPD-OH (peptide)
peptide: AICSRS[tBuAla]PPI[Pen]IPD-OH
modifications: disulfide 3-11; N-terminus assumed
SMILES: CC[C@H](C)[C@H](NC(=O)[C@H](C)N)C(=O)N[C@H]1CSSC(C)(C)[C@@H](C(=O)N[C@H](C(=O)N2CCC[C@H]2C(=O)N[C@@H](CC(=O)O)C(=O)O)[C@@H](C)CC)NC(=O)[C@H]([C@@H](C)CC)NC(=O)[C@@H]2CCCN2C(=O)[C@@H]2CCCN2C(=O)[C@H](CC(C)(C)C)NC(=O)[C@H](CO)NC(=O)[C@H](CCCNC(=N)N)NC(=O)[C@H](CO)NC1=O
B4: Example 19: RIC+SRS-((tBu)A)-PPI-((N-Me)C)+IPD-NH2 (peptide)
peptide: RICSRS[tBuAla]PPI[NMeC]IPD-NH2
modifications: disulfide 3-11; N-terminus assumed
SMILES: CC[C@H](C)[C@H](NC(=O)[C@@H](N)CCCNC(=N)N)C(=O)N[C@H]1CSSC[C@@H](C(=O)N[C@H](C(=O)N2CCC[C@H]2C(=O)N[C@@H](CC(=O)O)C(N)=O)[C@@H](C)CC)N(C)C(=O)[C@H]([C@@H](C)CC)NC(=O)[C@@H]2CCCN2C(=O)[C@@H]2CCCN2C(=O)[C@H](CC(C)(C)C)NC(=O)[C@H](CO)NC(=O)[C@H](CCCNC(=N)N)NC(=O)[C@H](CO)NC1=O
B5: Example 18: (Orn)-IC+SRS-((tBu)A)-PPI-(Pen)+IPD-OH (peptide)
peptide: [Orn]ICSRS[tBuAla]PPI[Pen]IPD-OH
modifications: disulfide 3-11; N-terminus assumed
SMILES: CC[C@H](C)[C@H](NC(=O)[C@@H](N)CCCN)C(=O)N[C@H]1CSSC(C)(C)[C@@H](C(=O)N[C@H](C(=O)N2CCC[C@H]2C(=O)N[C@@H](CC(=O)O)C(=O)O)[C@@H](C)CC)NC(=O)[C@H]([C@@H](C)CC)NC(=O)[C@@H]2CCCN2C(=O)[C@@H]2CCCN2C(=O)[C@H](CC(C)(C)C)NC(=O)[C@H](CO)NC(=O)[C@H](CCCNC(=N)N)NC(=O)[C@H](CO)NC1=O
B6: Example 20: AIC+SRS-((tBu)A)-PPI-((N-Me)C)+(2-[(1S,2S)-1-(Amino)-2-methylbutyl]-1,3-oxazole-4-carboxylic acid)-D-NH2 (peptide)
peptide: AICSRS[tBuAla]PPI[NMeC][X17]D-NH2
modifications: disulfide 3-11; N-terminus assumed
SMILES: CC[C@H](C)[C@H](NC(=O)[C@H](C)N)C(=O)N[C@H]1CSSC[C@@H](C(=O)N[C@H](c2nc(C(=O)N[C@@H](CC(=O)O)C(N)=O)co2)[C@@H](C)CC)N(C)C(=O)[C@H]([C@@H](C)CC)NC(=O)[C@@H]2CCCN2C(=O)[C@@H]2CCCN2C(=O)[C@H](CC(C)(C)C)NC(=O)[C@H](CO)NC(=O)[C@H](CCCNC(=N)N)NC(=O)[C@H](CO)NC1=O

What follows are binders tested against T1, recombinant rat MASP1 active protease (amino acids 302-704, C-terminal His Tag) (rat, UniProt Q8CHN8 302-704) (assay: cell-based or functional assay).
T1 sequence: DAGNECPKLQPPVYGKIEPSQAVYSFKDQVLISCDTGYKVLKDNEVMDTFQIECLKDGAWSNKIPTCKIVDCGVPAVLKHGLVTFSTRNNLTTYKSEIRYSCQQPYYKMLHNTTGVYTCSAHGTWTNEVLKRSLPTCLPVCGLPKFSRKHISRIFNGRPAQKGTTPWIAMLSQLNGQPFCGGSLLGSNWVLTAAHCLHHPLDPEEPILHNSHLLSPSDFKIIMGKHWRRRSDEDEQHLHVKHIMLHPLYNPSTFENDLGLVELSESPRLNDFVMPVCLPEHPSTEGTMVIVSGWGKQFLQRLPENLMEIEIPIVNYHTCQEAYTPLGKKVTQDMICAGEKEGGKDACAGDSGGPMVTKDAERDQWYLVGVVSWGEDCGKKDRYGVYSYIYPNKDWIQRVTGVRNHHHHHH
B1 was tested, and the “rat MASP1 IC50” value was 31 nM. With B2 the “rat MASP1 IC50” value was 23 nM. In the case of B3, the “rat MASP1 IC50” value is reported as 13 nM. AICSRS[tBuAla]PPI[NMeC]IPD-NH2 (disulfide 3-11; also: HCl salt) [Example 30: AIC+SRS-((tBu)A)-PPI-((N-Me)C)+IPD-NH2 (HCl salt)] was tested, and the “rat MASP1 IC50” value was 28 nM. For B4, the “rat MASP1 IC50” value was 23 nM. For B5, the “rat MASP1 IC50” value was 26 nM. B6 was tested, and the “rat MASP1 IC50” value was 13 nM.
